# What was measured:
# [1] = target: HLA-A*01:01; assay: IEDB peptide-MHC binding, purified MHC/direct/fluorescence; filed as Kd, often an IC50 or EC50 that approximates it; ≥ and ≤ were set here for values at or beyond the usual limits of such assays
# [2] = target: HLA-B*27:05; assay: as above
# [3] = target: HLA-B*08:02; assay: as above
# [4] = target: HLA-A*11:01; assay: as above
# [5] = target: HLA-A*69:01; assay: as above
# [6] = target: HLA-B*15:09; assay: as above
# [7] = target: HLA-A*26:01; assay: as above; conditions: source organism: Influenza A virus(A/swine/Shandong/fNY/2003(H9N2))
# [8] = target: HLA-A*02:01; assay: as above
# [9] = target: HLA-A*03:01; assay: as above
# [10] = target: HLA-B*15:01; assay: as above
# [11] = target: HLA-B*18:01; assay: as above
# [12] = target: HLA-B*44:02; assay: as above
# [13] = target: HLA-B*40:01; assay: as above
# [14] = target: HLA-B*58:01; assay: as above
# [15] = target: HLA-A*24:02; assay: as above
# [16] = target: HLA-B*07:02; assay: as above
# [17] = target: HLA-B*46:01; assay: as above; conditions: source organism: Influenza A virus (A/chicken/Hubei/wk/1997(H5N1))
# [18] = target: HLA-B*08:01; assay: as above
# [19] = target: HLA-A*31:01; assay: as above
# [20] = target: HLA-B*40:02; assay: IEDB peptide-MHC binding, purified MHC/competitive/radioactivity; filed as Kd, often an IC50 or EC50 that approximates it; ≥ and ≤ were set here for values at or beyond the usual limits of such assays
# [21] = target: HLA-B*18:01; assay: as above
# [22] = target: HLA-B*44:02; assay: as above
# [23] = target: HLA-B*40:01; assay: as above
# [24] = target: HLA-B*45:01; assay: as above
# [25] = target: HLA-B*44:03; assay: as above
# [26] = target: HLA-A*02:01; assay: IEDB peptide-MHC binding, purified MHC/competitive/fluorescence; ≥ and ≤ were set here for values at or beyond the usual limits of such assays; conditions: source organism: Zaire ebolavirus
# [27] = target: HLA-B*15:01; assay: as above
# [28] = target: HLA-A*24:02; assay: as above
# [29] = target: HLA-A*11:01; assay: as above; conditions: source organism: Vaccinia virus Copenhagen
# [30] = target: HLA-B*35:01; assay: IEDB peptide-MHC binding, purified MHC/competitive/fluorescence; filed as Kd, often an IC50 or EC50 that approximates it; ≥ and ≤ were set here for values at or beyond the usual limits of such assays
# [31] = source organism: Influenza A virus (A/chicken/Hubei/wk/1997(H5N1))
# [32] = source organism: Influenza A virus(A/swine/Shandong/fNY/2003(H9N2))
# [33] = source organism: Influenza A virus (A/Puerto Rico/8/34/Mount Sinai(H1N1))
# [34] = source organism: SARS coronavirus Tor2
# [35] = source organism: Zaire ebolavirus
# [36] = source organism: Mammarenavirus lassaense
# [37] = source organism: Vaccinia virus Copenhagen
# [38] = source organism: Influenza A virus (A/equine/New York/1/1999(H3N8))
# [39] = source organism: Giardia lamblia ATCC 50803
sequence,measurement,setting,value
NPALRMKWM,Kd,[1]; [31],≥ 20 µM
same,Kd,[2]; [31],≥ 20 µM
same,Kd,[3]; [32],≥ 20 µM
same,Kd,[4]; [31],≥ 20 µM
same,Kd,[5]; [31],≥ 20 µM
same,Kd,[6]; [32],≥ 20 µM
same,Kd,[7],≥ 20 µM
same,Kd,[8]; [31],≥ 20 µM
same,Kd,[9]; [31],≥ 20 µM
same,Kd,[10]; [31],≥ 20 µM
same,Kd,[11]; [31],≥ 20 µM
same,Kd,[12]; [31],≥ 20 µM
same,Kd,[13]; [31],≥ 20 µM
same,Kd,[14]; [31],≥ 20 µM
same,Kd,[15]; [31],≥ 20 µM
same,Kd,[16]; [33],0.091 µM
same,Kd,[17],≥ 20 µM
same,Kd,[18]; [33],1.41 µM
same,Kd,[19]; [31],≥ 20 µM
PEFYEAMYT,Kd,[20]; [34],5.05 µM
same,Kd,[21]; [34],≥ 52.4 µM
same,Kd,[22]; [34],17.4 µM
same,Kd,[23]; [34],3.74 µM
same,Kd,[24]; [34],3.4 µM
same,Kd,[25]; [34],4.91 µM
QAFEAGVDF,IC50,[26],≥ 475 µM
same,IC50,[27]; [35],30.6 µM
same,IC50,[28]; [35],29.4 µM
SDLDMLTQS,Kd,[20]; [36],6.1 µM
same,Kd,[21]; [36],≥ 77.5 µM
same,Kd,[22]; [36],≥ 42.2 µM
same,Kd,[23]; [36],≥ 24.7 µM
same,Kd,[24]; [36],≥ 77.7 µM
same,Kd,[25]; [36],≥ 78.1 µM
SEQSLRLVDA,Kd,[20]; [34],0.47 µM
same,Kd,[21]; [34],3.61 µM
same,Kd,[22]; [34],0.0916 µM
same,Kd,[23]; [34],18.7 µM
same,Kd,[24]; [34],0.00586 µM
same,Kd,[25]; [34],0.436 µM
SQMTSTFIM,IC50,[29],1.59 µM
same,IC50,[27]; [37],1.75 µM
same,IC50,[28]; [37],2.16 µM
VAGGTSSVY,Kd,[1]; [38],≥ 20 µM
same,Kd,[2]; [38],≥ 20 µM
same,Kd,[4]; [38],≥ 20 µM
same,Kd,[5]; [38],≥ 20 µM
same,Kd,[6]; [32],≥ 20 µM
same,Kd,[8]; [38],≥ 20 µM
same,Kd,[9]; [38],≥ 20 µM
same,Kd,[10]; [33],0.129 µM
same,Kd,[13]; [38],≥ 20 µM
same,Kd,[14]; [38],2.89 µM
same,Kd,[15]; [38],≥ 20 µM
same,Kd,[16]; [38],≥ 20 µM
same,Kd,[18]; [38],≥ 20 µM
same,Kd,[19]; [38],≥ 20 µM
same,Kd,[30]; source organism: Influenza A virus (A/quail/Hong Kong/SF550/00(H6N1)),0.0109 µM
VETVSLAGSY,Kd,[20]; [34],≥ 70.8 µM
same,Kd,[21]; [34],1.68 µM
same,Kd,[22]; [34],3.22 µM
same,Kd,[23]; [34],17.7 µM
same,Kd,[24]; [34],11.7 µM
same,Kd,[25]; [34],1.29 µM
VKYLEGHGF,IC50,[26],≥ 160 µM
same,IC50,[27]; [35],≥ 72.1 µM
same,IC50,[28]; [35],14.4 µM
WASRELERF,Kd,[14]; source organism: Human immunodeficiency virus type 1 BH10,0.0275 µM
same,Kd,[30]; source organism: Human immunodeficiency virus 1,0.0568 µM
YIASIFMPR,Kd,[1]; [39],≥ 20 µM
same,Kd,[2]; [39],≥ 20 µM
same,Kd,[3]; [39],≥ 20 µM
same,Kd,[4]; [39],0.0448 µM
same,Kd,[5]; [39],≥ 20 µM
same,Kd,[6]; [39],≥ 20 µM
same,Kd,[9]; [39],0.335 µM
same,Kd,[10]; [39],≥ 20 µM
same,Kd,[11]; [39],≥ 20 µM
same,Kd,[12]; [39],≥ 20 µM
same,Kd,[13]; [39],≥ 20 µM
same,Kd,[14]; [39],≥ 20 µM
same,Kd,[15]; [39],≥ 20 µM
same,Kd,[16]; [39],≥ 20 µM
same,Kd,[19]; [39],0.011 µM
YQATGFGTN,IC50,[26],≥ 146 µM
same,IC50,[27]; [35],22.7 µM
same,IC50,[28]; [35],≥ 231 µM

# Source: the Immune Epitope Database (IEDB)
